# Experimental data published in the RNAGym collection of RNA variant scans (doi:10.7554/elife.80360).
# B1: Hairpin Ribozyme (parent)
# chain: GUCCUCUUUCACGUGCGCGUGAAAGAGAGAAGUGAACCAGAGAAACACACGUUGUGGUAUAUUACCUGGUA
# Variants of: B1
# Assay: self-cleavage, relative activity (ratio to wild type); higher = more cleavage; co-transcriptional
row,Variant,self-cleavage
1,GUCCUCUUUCACCUGCGCGUGAAAGAGAGAAGUGAACCAGAGAAACACACAUUGUGGUAUAUUACCUGGUA [G13C G51A],0.521
2,GUCCUCUUUCACCUGCGCGUGAAAGAGAGAAGUGAACCAGAGAAACACACGUUGUGCUAUAUUACCUGGUA [G13C G57C],0.125
3,GUCCUCUUUCACCUGCGCGUGAAAGAGAGAAGUGAACCAGAGAAACACACGUUGUGAUAUAUUACCUGGUA [G13C G57A],0.215
4,GUCCUCUUUCACCUGAGCGUGAAAGAGAGAAGUGAACCAGAGAAACACACGUUGUGGUAUAUUACCUGGUA [G13C C16A],0.597
5,GUCCUCUUUCACCUGCGCGUGAAAGAGAGAAGUGAACCAGAGAAACACACGUUGGGGUAUAUUACCUGGUA [G13C U55G],0.107
6,GUCCUCUUUCACCUGCGCGUGAAAGAGAGAAGUGAACCAGAGAAACACACGUUGCGGUAUAUUACCUGGUA [G13C U55C],0.0845
7,GUCCUCUUUCACCUGCGCGUGAAAGAGAGAAGUGAACCAGAGAAACACACGUUGUGGUAUAUUACCUGGUC [G13C A71C],1.22
8,GUCCUCUUUCACCUGCGCGUGAAAGAAAGAAGUGAACCAGAGAAACACACGUUGUGGUAUAUUACCUGGUA [G13C G27A],0.314
9,GUCCUCUUUCACCUGCGCGUGAAAGAGAGAAGUGAACCAGAGAAACACACGUUUUGGUAUAUUACCUGGUA [G13C G54U],0.532
10,GUCCUCUUUCACCUGCGCGUGAAAGAGAGAAGUGAACCAGAGAAACACACGUUGUUGUAUAUUACCUGGUA [G13C G56U],0.202
11,GUCCUCUUUCACCUGCGCGUGAAAGAGAGAAGUGAACCAGAGAAACACACGUUGUCGUAUAUUACCUGGUA [G13C G56C],0.17
12,GUCCUCUUUCACCUGCGCGUGAAAGAGAGAAGUGAACCAGAGAAACACACGAUGUGGUAUAUUACCUGGUA [G13C U52A],0.658
13,GUCCUCUUUCACCUGCGCGUCAAAGAGAGAAGUGAACCAGAGAAACACACGUUGUGGUAUAUUACCUGGUA [G13C G21C],0.587
14,GUCCUCUUUCACCUGCGGGUGAAAGAGAGAAGUGAACCAGAGAAACACACGUUGUGGUAUAUUACCUGGUA [G13C C18G],0.807
15,GUCCUCUUUCACCUGCGUGUGAAAGAGAGAAGUGAACCAGAGAAACACACGUUGUGGUAUAUUACCUGGUA [G13C C18U],0.817
16,GUCCUCUUUCACCUGCGCGUGAAAGAGAGAAGUGAACCAGAGAAACAAACGUUGUGGUAUAUUACCUGGUA [G13C C48A],0.16
17,GUCCUCUUUCACCUGCGCGUGAAACAGAGAAGUGAACCAGAGAAACACACGUUGUGGUAUAUUACCUGGUA [G13C G25C],0.356
18,GUCCUCUUUCACCUGCGCGUGAAAGAGAGAAGUGAACCAGAGAAACACACGUUGUGGUAUAUUAUCUGGUA [G13C C65U],0.243
19,GUCCUCUUUCACCUGCGCGUGAAAGAGAGAAGUGAACCAGAGAAACACACGUUGUGGUAUAUUACCUUGUA [G13C G68U],0.193

row,Variant,self-cleavage
1,GUCCUCUUUCACCUGCGCGUGAAAGAGACAAGUGAACCAGAGAAACACACGUUGUGGUAUAUUACCUGGUA [G13C G29C],0.189
2,GUCCUCUUUCACCUGCGCGUGAAAGAGAGAAGUGAACCAGAUAAACACACGUUGUGGUAUAUUACCUGGUA [G13C G42U],0.201
3,GUCCUCUUUCACCUGCGCGUGAAAGAGAGAAGUGAACCAGACAAACACACGUUGUGGUAUAUUACCUGGUA [G13C G42C],0.3
4,GUCCUCUUUCACCUGCGCGUGAAAGAGAGAAGUGAACCAGAGAAAGACACGUUGUGGUAUAUUACCUGGUA [G13C C46G],0.164
5,GUCCUCUUUCACCUGCGCGUGAAAGAGAGAAGUGAACCAGAGAAACACACGUUGUGGGAUAUUACCUGGUA [G13C U58G],0.398
6,GUCCUCUUUCACCUGCGCGUGAAAGAGAGAAAUGAACCAGAGAAACACACGUUGUGGUAUAUUACCUGGUA [G13C G32A],0.12
7,GUCCUCUUUCACCUGCGCGUGAAAGAGAGAAUUGAACCAGAGAAACACACGUUGUGGUAUAUUACCUGGUA [G13C G32U],0.027
8,GUCCUCUUUCACCUGCGCGUGAAAGAGAGAAGUGAACCAGAGAAACACACGUUGUGGUACAUUACCUGGUA [G13C U60C],0.912
9,GUCCUCUUUCACCUGCCCGUGAAAGAGAGAAGUGAACCAGAGAAACACACGUUGUGGUAUAUUACCUGGUA [G13C G17C],0.368
10,GUCCUCUUUCACCUGCACGUGAAAGAGAGAAGUGAACCAGAGAAACACACGUUGUGGUAUAUUACCUGGUA [G13C G17A],0.839
11,GUCCUCUUUCACCCGCGCGUGAAAGAGAGAAGUGAACCAGAGAAACACACGUUGUGGUAUAUUACCUGGUA [G13C U14C],0.583
12,GUCCUCUUUCACCUGCGCGUGAAAGAGAGAAGUGAAUCAGAGAAACACACGUUGUGGUAUAUUACCUGGUA [G13C C37U],0.508
13,GUCCUCUUUCACCUGCGCGUGAAAGAGAGAAGUGAAACAGAGAAACACACGUUGUGGUAUAUUACCUGGUA [G13C C37A],0.204
14,GUCCUCUUUCACCUGCGCGUGAAAGAGAGAAGUGAACCAGAGAAACACACGUCGUGGUAUAUUACCUGGUA [G13C U53C],0.535
15,GUCCUCUUUCACCUGCGCGUGAAAGAGAGAAGCGAACCAGAGAAACACACGUUGUGGUAUAUUACCUGGUA [G13C U33C],0.296
16,GUCCUCUUUCACCUGCGCGUGAAAGAGAGAAGUGAACCAGAGAAACACACGUUGUGGUAUAUUACCUGUUA [G13C G69U],0.217
17,GUCCUCUUUCACCUGCGCCUGAAAGAGAGAAGUGAACCAGAGAAACACACGUUGUGGUAUAUUACCUGGUA [G13C G19C],0.58
18,GUCCUCUUUCACCUGCGCAUGAAAGAGAGAAGUGAACCAGAGAAACACACGUUGUGGUAUAUUACCUGGUA [G13C G19A],0.753
19,GUCCUCUUUCACCUGCGCGUGAAAGAGAGAAGUGAACCAGAGAAACACACGUUGUGGUAUACUACCUGGUA [G13C U62C],0.147
